Measurements taken from the supplement of paper PMC9112550, “Optimization of the antimicrobial peptide Bac7 by deep mutational scanning” (BMC Biology, 2022).

Tested on: Escherichia coli TOP10
Assay: shrunken log2 fold change of peptide-encoding DNA abundance (4.5 h post-induction vs induction); higher = less antimicrobial activity (less host growth inhibition)
Conditions: time post-induction: 4.5 h; library: site-saturation at positions 5, 18, 19, 20
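Also: peptides expressed intracellularly from a pBAD plasmid library in pooled LB shake-flask culture, induced with 0.3% L-arabinose, DNA abundance read by NGS, three biological replicates, DESeq2 with apeglm shrinkage.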

Sequence	shrunken log2 fold change
RRIRRRPPRLPRPRPRPNSSPRP	0.105
RRIRVRPPRLPRPRPRPDVKPRP	-0.0375
RRIRRRPPRLPRPRPRPQVNPRP	-0.0663
RRIRWRPPRLPRPRPRPTSCPRP	0.581
RRIRGRPPRLPRPRPRPKPAPRP	1.42
RRIRLRPPRLPRPRPRPNDRPRP	-0.422
RRIRPRPPRLPRPRPRPSWLPRP	-0.0766
RRIRERPPRLPRPRPRPEQDPRP	-0.0751
RRIRDRPPRLPRPRPRPMPNPRP	-0.258
RRIRFRPPRLPRPRPRPVCKPRP	-0.139
RRIRVRPPRLPRPRPRPVMCPRP	-0.0631
RRIRRRPPRLPRPRPRPQGDPRP	0.0133
RRIRKRPPRLPRPRPRPDRGPRP	0.0561
RRIRERPPRLPRPRPRPRFRPRP	0.0352
RRIRWRPPRLPRPRPRPFTNPRP	0.115
RRIRWRPPRLPRPRPRPQAEPRP	0.0113
RRIRARPPRLPRPRPRPWELPRP	0.0412
RRIRFRPPRLPRPRPRPGFYPRP	-0.28
RRIRSRPPRLPRPRPRPYVRPRP	-0.0846
RRIRYRPPRLPRPRPRPGGSPRP	-0.017
RRIRLRPPRLPRPRPRPDGIPRP	-0.0391
RRIRMRPPRLPRPRPRPERCPRP	0.201
RRIRARPPRLPRPRPRPNQVPRP	-0.0439
RRIRSRPPRLPRPRPRPEHYPRP	-0.132
RRIRGRPPRLPRPRPRPKDHPRP	0.465

Sequence	shrunken log2 fold change
RRIRERPPRLPRPRPRPQFLPRP	-0.571
RRIRPRPPRLPRPRPRPLAQPRP	0.192
RRIRPRPPRLPRPRPRPRFCPRP	0.225
RRIRNRPPRLPRPRPRPNGDPRP	-0.0698
RRIRSRPPRLPRPRPRPIATPRP	0.344
RRIRKRPPRLPRPRPRPNNCPRP	-0.256
RRIRERPPRLPRPRPRPLFHPRP	-0.367
RRIRGRPPRLPRPRPRPFKKPRP	0.0278
RRIRGRPPRLPRPRPRPLFFPRP	0.415
RRIRMRPPRLPRPRPRPVNCPRP	0.181
RRIRHRPPRLPRPRPRPAPAPRP	0.289
RRIRTRPPRLPRPRPRPEHFPRP	-0.115
RRIRWRPPRLPRPRPRPFQEPRP	-0.0827
RRIRHRPPRLPRPRPRPICYPRP	-0.178
RRIRNRPPRLPRPRPRPIGTPRP	0.000741
RRIRIRPPRLPRPRPRPRFMPRP	-0.143
RRIRERPPRLPRPRPRPMYRPRP	-0.273
RRIRCRPPRLPRPRPRPDLQPRP	-0.00569
RRIRTRPPRLPRPRPRPYWYPRP	-0.574
RRIRCRPPRLPRPRPRPRNCPRP	-0.288
RRIRLRPPRLPRPRPRPLEDPRP	-0.076
RRIRWRPPRLPRPRPRPGNHPRP	-0.163
RRIRTRPPRLPRPRPRPCRHPRP	-0.101
RRIRERPPRLPRPRPRPQRIPRP	-0.0866
RRIRVRPPRLPRPRPRPIKWPRP	-0.161

Sequence	shrunken log2 fold change
RRIRLRPPRLPRPRPRPPEKPRP	0.0964
RRIRFRPPRLPRPRPRPLWWPRP	0.172
RRIRLRPPRLPRPRPRPSMPPRP	-0.4
RRIRQRPPRLPRPRPRPKHMPRP	-0.237
RRIRTRPPRLPRPRPRPEMSPRP	-0.145
RRIRWRPPRLPRPRPRPECDPRP	1.93
RRIRQRPPRLPRPRPRPFVQPRP	-0.0936
RRIRRRPPRLPRPRPRPLQWPRP	0.292
RRIRDRPPRLPRPRPRPHTSPRP	0.0247
RRIRVRPPRLPRPRPRPRNIPRP	-0.0258
RRIRFRPPRLPRPRPRPKDMPRP	-0.0249
RRIRERPPRLPRPRPRPKMSPRP	0.148
RRIRFRPPRLPRPRPRPLSHPRP	-0.512
RRIRERPPRLPRPRPRPIMPPRP	-0.356
RRIRIRPPRLPRPRPRPKQGPRP	0.391
RRIRQRPPRLPRPRPRPEIMPRP	0.103
RRIRNRPPRLPRPRPRPRWRPRP	0.623
RRIRDRPPRLPRPRPRPYCLPRP	-0.0759
RRIRHRPPRLPRPRPRPSAKPRP	-0.324
RRIRNRPPRLPRPRPRPLPFPRP	-0.153
RRIRFRPPRLPRPRPRPKYCPRP	0.124
RRIRCRPPRLPRPRPRPKRVPRP	0.267
RRIRERPPRLPRPRPRPMMMPRP	-0.182
RRIRFRPPRLPRPRPRPHMGPRP	-0.292
RRIRHRPPRLPRPRPRPEGTPRP	-0.0282

Sequence	shrunken log2 fold change
RRIRDRPPRLPRPRPRPRVMPRP	0.106
RRIRTRPPRLPRPRPRPAENPRP	0.0214
RRIRQRPPRLPRPRPRPAMQPRP	0.109
RRIRWRPPRLPRPRPRPMALPRP	-0.0125
RRIRFRPPRLPRPRPRPNADPRP	-0.055
RRIRVRPPRLPRPRPRPLIEPRP	0.103
RRIRFRPPRLPRPRPRPCRVPRP	-0.129
RRIRSRPPRLPRPRPRPTKNPRP	0.168
RRIRLRPPRLPRPRPRPYYMPRP	-0.671
RRIRYRPPRLPRPRPRPSLDPRP	-1.07
RRIRKRPPRLPRPRPRPNKCPRP	-0.106
RRIRARPPRLPRPRPRPEPIPRP	0.716
RRIRARPPRLPRPRPRPRVKPRP	0.488
RRIRFRPPRLPRPRPRPQFSPRP	-0.401
RRIRMRPPRLPRPRPRPQKMPRP	0.0453
RRIRHRPPRLPRPRPRPAGQPRP	-0.00146
RRIRMRPPRLPRPRPRPMDAPRP	0.781
RRIRWRPPRLPRPRPRPEDYPRP	-0.00903
RRIRWRPPRLPRPRPRPVYNPRP	-0.817
RRIRNRPPRLPRPRPRPPTCPRP	-0.221
RRIRGRPPRLPRPRPRPGMRPRP	1.68
RRIRARPPRLPRPRPRPSYCPRP	-0.311
RRIRWRPPRLPRPRPRPVYAPRP	0.31
RRIRFRPPRLPRPRPRPKGWPRP	0.589
RRIRSRPPRLPRPRPRPEDFPRP	-0.149

Sequence	shrunken log2 fold change
RRIRCRPPRLPRPRPRPGEIPRP	0.183
RRIRDRPPRLPRPRPRPHGHPRP	0.0317
RRIRGRPPRLPRPRPRPGHPPRP	0.444
RRIRFRPPRLPRPRPRPVKGPRP	-0.178
RRIRMRPPRLPRPRPRPHSKPRP	-0.0418
RRIRSRPPRLPRPRPRPPNKPRP	-0.0165
RRIRNRPPRLPRPRPRPFVDPRP	-0.725
RRIRSRPPRLPRPRPRPPAQPRP	0.922
RRIRHRPPRLPRPRPRPMHNPRP	0.708
RRIRKRPPRLPRPRPRPKWHPRP	0.0114
RRIRLRPPRLPRPRPRPAGHPRP	-0.0387
RRIRYRPPRLPRPRPRPFPFPRP	-0.271
RRIRCRPPRLPRPRPRPQGMPRP	0.00583
RRIRVRPPRLPRPRPRPPNQPRP	0.184
RRIRSRPPRLPRPRPRPVGIPRP	-0.012
RRIRRRPPRLPRPRPRPDGSPRP	0.0601
RRIRHRPPRLPRPRPRPLTNPRP	0.185
RRIRYRPPRLPRPRPRPERDPRP	0.0217
RRIRERPPRLPRPRPRPNSGPRP	-0.463
RRIRGRPPRLPRPRPRPNVAPRP	1.15
RRIRARPPRLPRPRPRPVDDPRP	0.469
RRIRSRPPRLPRPRPRPCKMPRP	-0.215
RRIRFRPPRLPRPRPRPTKTPRP	-0.0652
RRIRTRPPRLPRPRPRPLAFPRP	2.19
RRIRFRPPRLPRPRPRPIVNPRP	0.00221

Sequence	shrunken log2 fold change
RRIRSRPPRLPRPRPRPCNQPRP	-0.391
RRIRDRPPRLPRPRPRPMGGPRP	0.0169
RRIRQRPPRLPRPRPRPCIDPRP	-0.424
RRIRDRPPRLPRPRPRPTKNPRP	0.0799
RRIRIRPPRLPRPRPRPMGIPRP	0.000142
RRIRCRPPRLPRPRPRPHMCPRP	0.099
RRIRMRPPRLPRPRPRPCMVPRP	-0.417
RRIRARPPRLPRPRPRPGVPPRP	0.727
RRIRSRPPRLPRPRPRPIGVPRP	0.049
RRIRYRPPRLPRPRPRPQKHPRP	-0.777
RRIRKRPPRLPRPRPRPLSPPRP	0.615
RRIRFRPPRLPRPRPRPQLAPRP	0.0569
RRIRPRPPRLPRPRPRPIGGPRP	0.00483
RRIRARPPRLPRPRPRPHYKPRP	-0.424
RRIRRRPPRLPRPRPRPVSHPRP	0.218
RRIRLRPPRLPRPRPRPNYQPRP	-0.773
RRIRVRPPRLPRPRPRPDQRPRP	0.128
RRIRLRPPRLPRPRPRPVKTPRP	-0.0565
RRIRHRPPRLPRPRPRPESGPRP	-0.0115
RRIRTRPPRLPRPRPRPLINPRP	-0.692
RRIRHRPPRLPRPRPRPPNHPRP	-0.442
RRIRHRPPRLPRPRPRPIDRPRP	-0.263
RRIRARPPRLPRPRPRPMNAPRP	0.376
RRIRTRPPRLPRPRPRPMWHPRP	-0.391
RRIRVRPPRLPRPRPRPHPWPRP	0.0927
